Source: paper PMC5292672

Target: herpes virus entry mediator (HVEM) (human (endogenous in monocyte‐derived macrophages)) (UniProt Q92956)
UniProt Q92956, sequence (Q92956 39-283): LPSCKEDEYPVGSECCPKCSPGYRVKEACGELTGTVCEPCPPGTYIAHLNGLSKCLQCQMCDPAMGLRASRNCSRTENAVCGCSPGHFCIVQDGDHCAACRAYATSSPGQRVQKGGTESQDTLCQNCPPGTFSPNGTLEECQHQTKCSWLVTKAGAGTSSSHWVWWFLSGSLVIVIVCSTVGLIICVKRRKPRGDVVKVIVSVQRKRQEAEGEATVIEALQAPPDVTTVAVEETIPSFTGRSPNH

Substance	decrease of staurosporin-induced caspase-3 activity in primary macrophages exposed before to HSV-1 gD, against staurosporin alone	decrease of staurosporin-induced caspase-3 activity in primary macrophages exposed before to CyPB, against staurosporin alone
recombinant His‐tagged HSV‐1 gD (glycoprotein D of herpes simplex virus‐1) (from UniProt Q69091 26-394) (natural protein)	75%	–
recombinant human cyclophilin B (from UniProt P23284 34-216) (natural protein)	–	75%
